Laboratory results taken from patent publication US20240141039A1 (AGENUS, published 2024).

T1: full-length isoform 2 ECD of human CD96 with a C89S mutation (His-tagged) (human, UniProt P40200 22-519)
T1 construct: also called His-tagged isoform 2 of human CD96 with a C89S mutation; human CD96 extracellular domain isoform 2 C89S
T1 sequence: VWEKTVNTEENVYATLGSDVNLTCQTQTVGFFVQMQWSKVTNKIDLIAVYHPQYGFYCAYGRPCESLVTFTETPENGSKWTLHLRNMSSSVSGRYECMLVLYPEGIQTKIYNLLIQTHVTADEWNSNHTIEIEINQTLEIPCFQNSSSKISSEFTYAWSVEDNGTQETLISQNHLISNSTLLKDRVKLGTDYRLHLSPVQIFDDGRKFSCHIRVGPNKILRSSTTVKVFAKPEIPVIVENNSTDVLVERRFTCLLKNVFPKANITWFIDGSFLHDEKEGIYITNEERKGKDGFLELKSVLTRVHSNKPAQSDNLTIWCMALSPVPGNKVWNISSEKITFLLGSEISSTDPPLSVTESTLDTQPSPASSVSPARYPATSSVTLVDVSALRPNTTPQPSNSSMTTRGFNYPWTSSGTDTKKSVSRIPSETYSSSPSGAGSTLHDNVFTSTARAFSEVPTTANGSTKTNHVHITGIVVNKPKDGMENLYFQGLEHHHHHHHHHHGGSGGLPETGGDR

T2: wild type full-length human CD96 isoform 2 expressed on CHO cells (human, UniProt P40200-2 22-569)
T2 construct: whole, on cells; also called human CD96-CHO (isoform 2); human CD96 (iso2) CHO cells
T2 sequence (looked up): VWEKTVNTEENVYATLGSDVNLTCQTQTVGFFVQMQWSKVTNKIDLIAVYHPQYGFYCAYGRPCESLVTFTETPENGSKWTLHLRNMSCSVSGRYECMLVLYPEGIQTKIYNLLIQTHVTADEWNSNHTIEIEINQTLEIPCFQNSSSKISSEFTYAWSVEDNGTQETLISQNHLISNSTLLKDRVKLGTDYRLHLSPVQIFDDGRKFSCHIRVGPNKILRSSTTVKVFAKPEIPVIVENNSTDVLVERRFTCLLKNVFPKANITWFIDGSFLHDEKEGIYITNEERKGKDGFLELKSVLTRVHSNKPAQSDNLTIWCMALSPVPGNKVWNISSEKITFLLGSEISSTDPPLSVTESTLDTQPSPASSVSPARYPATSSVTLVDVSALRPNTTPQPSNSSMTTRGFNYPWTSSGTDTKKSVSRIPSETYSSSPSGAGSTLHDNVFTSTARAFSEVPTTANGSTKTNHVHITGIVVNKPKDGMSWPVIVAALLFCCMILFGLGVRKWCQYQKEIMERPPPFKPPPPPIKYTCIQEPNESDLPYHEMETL


Legend:
[1] = target: T1, full-length isoform 2 ECD of human CD96 …; experiment: SPR Biacore T200, geomean of experiments #1 and #2
Experimental: (§1) Briefly, surface plasmon resonance experiments were performed using a Biacore T200 instrument, and the association rate (kₐ), dissociation rate (kd), and dissociation constant (KD) were calculated from each experiment using a 1:1 binding model with Biacore T200 Evaluation Software.
(§2) Multispecific molecules were captured using a 30-sec injection at a flow rate of 10 μl/min to reach about 350 resonance units (RUs). […] The sensor chip was regenerated between cycles with two 30-sec injections of 10 mM glycine, pH 1.5. Sensorgrams were evaluated and fit to a simple Langmuir 1:1 interaction model using the global data analysis option of BIAevaluation 3.0 software. Data quality was verified by visually inspecting deviations and curve fitting, and by evaluating the parameters of Rₘₐₓ, Chi2, and Tc.

[2] = target: T3, full-length ECD of cynomolgus monkey TIGIT (His-tagged) (cynomolgus monkey); experiment: SPR Biacore T200, geomean of experiments #1 and #2
T3 construct: also called His-tagged cynomolgus monkey TIGIT; cyno TIGIT extracellular domain
Experimental: as §1, §2

[3] = target: T1, full-length isoform 2 ECD of human CD96 …; experiment: SPR Biacore T200, Protein A capture, 1:1 model, experiment #1
Experimental: as §1, §2

[4] = target: T3, full-length ECD of cynomolgus monkey …; experiment: as above
Experimental: as §1, §2

[5] = target: T1, full-length isoform 2 ECD of human CD96 …; experiment: SPR Biacore T200, Protein A capture, 1:1 model, experiment #2
Experimental: as §1, §2

[6] = target: T3, full-length ECD of cynomolgus monkey …; experiment: as above
Experimental: as §1, §2

[7] = target: T4, wild type full-length cynomolgus monkey TIGIT expressed on CHO cells (cynomolgus monkey, UniProt A0A7N9I9V4 89-312); experiment: flow cytometry, cynomolgus TIGIT CHO cells, geomean of 2 experiments
T4 construct: whole, on cells; also called cynomolgus TIGIT-CHO cells
T4 sequence (A0A7N9I9V4 entry or part of it): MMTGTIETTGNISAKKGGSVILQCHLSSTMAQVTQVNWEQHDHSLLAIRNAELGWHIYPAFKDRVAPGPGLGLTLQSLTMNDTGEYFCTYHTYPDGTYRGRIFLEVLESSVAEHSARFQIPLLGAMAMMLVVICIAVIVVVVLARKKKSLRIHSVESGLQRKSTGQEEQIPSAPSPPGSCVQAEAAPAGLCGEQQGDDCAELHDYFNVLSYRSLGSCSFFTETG

[8] = target: T2, wild type full-length human CD96 …; experiment: flow cytometry, human CD96 (isoform 2) CHO cells, geomean of 2 experiments
Experimental: For the antibody binding assay, a frozen aliquot of human CD96-CHO cells (isoform 1 or isoform 2) was thawed at 37° C. and then transferred to a tube containing DPBS supplemented with 0.5% Bovine Serum Albumin and 0.05% Sodium Azide (FACS Buffer). Cells were centrifuged at 300 g for five minutes. The supernatant was discarded, and cells resuspended in FACS buffer were seeded in a 96-well U-bottom tissue culture plate at a density of 2×10⁵ cells per well in 50 μL. In a separate microplate, a 2× concentrated intermediate stock of each antibody was prepared. Antibodies were serially diluted 1-to-3 in FACS buffer. A total of 11 working dilutions ranging from 60 μg/mL to 0.001 μg/mL were prepared. Fifty microlitres of each dilution were then transferred to the microplate containing human CD96-CHO cells. The cells were then incubated for 45 minutes at 4° C. […] After a 30-minute incubation on ice, the cells were washed twice with cold FACS Buffer, and the cells were analyzed by flow cytometry (BD LSR Fortessa Flow Cytometer). The data were analyzed using the FlowJo software by sequentially gating the FSC-A vs. SSC-A, and SSC-H vs. SSC-A. Mean fluorescence intensity (MFI) values for PE were calculated, and the data were plotted by GraphPad Prism software.

[9] = target: T4, wild type full-length cynomolgus monkey …; experiment: flow cytometry, blocking of CD155-Fc-PE binding to cynomolgus TIGIT CHO cells, geomean of 2 experiments

Binder	Kd [1]	Kd [2]	Kd [3]	koff [3]	kon [3]	Kd [4]	koff [4]	kon [4]	Kd [5]	koff [5]	kon [5]	Kd [6]	koff [6]	kon [6]	EC50 [7]	EC50 [8]	IC50 [9]
anti-TIGIT×CD96 multispecific molecule BA123 (bispecific antibody, human IgG1, kappa, lambda, copies: 1 + 1 + 1 + 1) heavy 1: QVQLVQSGAEVKKPGASVKVSCKASGYTFTSYGISWVRQAPGQGLEWMGWISAYNANTNYAQKLQGRVTMTTDTSTSTAYMELRSLRSDDTAVYYCARSAGVLGGMDVWGRGTLVTVSSASTKGPSVFPLAPSSKSTSGGTAALGCLVKDYFPEPVTVSWNSGALTSGVHTFPAVLQSSGLYSLSSVVTVPSSSLGTQTYICNVNHKPSNTKVDKRVEPKSCDKTHTCPPCPAPELLGGPDVFLFPPKPKDTLMISRTPEVTCVVVDVSHEDPEVKFNWYVDGVEVHNAKTKPREEQYNSTYRVVSVLTVLHQDWLNGKEYKCKVSNKALPAPIEKTISKAKGQPREPQVYTLPPSREEMTKNQVSLSCAVKGFYPSDIAVEWESNGQPENNYKTTPPVLDSDGSFFLVSKLTVDKSRWQQGNVFSCSVMHEALHNHYTQKSLSLSPG light 1: not shown heavy 2: EVQLVQSGAEVKKPGSSVKVSCKASGYTFASYGISWVRQAPGQGLEWMGGITPFFNRVDVAEKFQGRVTITADKSTSTAYIELSSLRSEDTAVYYCARDLRRGGVGDAFDIWGRGTLVTVSSASTKGPSVFPLAPSSKSTSGGTAALGCLVKDYFPEPVTVSWNSGALTSGVHTFPAVLQSSGLYSLSSVVTVPSSSLGTQTYICNVNHKPSNTKVDKRVEPKSCDKTHTCPPCPAPELLGGPDVFLFPPKPKDTLMISRTPEVTCVVVDVSHEDPEVKFNWYVDGVEVHNAKTKPREEQYNSTYRVVSVLTVLHQDWLNGKEYKCKVSNKALPLPEEKTISKAKGQPREPQVYTLPPSREEMTKNQVSLWCLVKGFYPSDIAVEWESNGQPENNYKTTPPVLDSDGSFFLYSKLTVDKSRWQQGNVFSCSVMHEALHNHYTQKSLSLSPG light 2: QSALTQPRSVSGSPGQSVTISCTGTSPDVGSHAYRSWYQQHPGKAPKLMIYEVSYRPSGVSNRFSGSKSGNTASLTISGLQAEDEADYYCSSYPPSSATVFGAGTKLTVLGQPKAAPSVTLFPPSSEELQANKATLVCLISDFYPGAVTVAWKADSSPVKAGVETTTPSKQSNNKYAASSYLSLTPEQWKSHRSYSCQVTHEGSTVEKTVAPTEC	81.9 nM	4.5 nM	79 nM	0.00125 s⁻¹	15800 M⁻¹ s⁻¹	4.78 nM	0.00132 s⁻¹	277000 M⁻¹ s⁻¹	85 nM	0.00083 s⁻¹	9760 M⁻¹ s⁻¹	4.27 nM	0.00135 s⁻¹	315000 M⁻¹ s⁻¹	0.165 µg/mL	0.196 µg/mL	2.35 µg/mL
anti-TIGIT×CD96 multispecific molecule BA127 (bispecific antibody, human IgG1, kappa, lambda, Anti-CD96 arm = BA139, anti-TIGIT arm = BA150; copies: 1 + 1 + 1 + 1) heavy 1: QVQLVQSGAEVKKPGASVKVSCKASGYTFTTYALHWVRQAPGQRLEWMGWINTGSGDTKYSQKFQGRVTITRDTSASTAYMELSSLRSEDTAVYYCARSLGVYYGMDVWGQGTLVTVSSASTKGPSVFPLAPSSKSTSGGTAALGCLVKDYFPEPVTVSWNSGALTSGVHTFPAVLQSSGLYSLSSVVTVPSSSLGTQTYICNVNHKPSNTKVDKRVEPKSCDKTHTCPPCPAPELLGGPDVFLFPPKPKDTLMISRTPEVTCVVVDVSHEDPEVKFNWYVDGVEVHNAKTKPREEQYNSTYRVVSVLTVLHQDWLNGKEYKCKVSNKALPAPIEKTISKAKGQPREPQVYTLPPSREEMTKNQVSLSCAVKGFYPSDIAVEWESNGQPENNYKTTPPVLDSDGSFFLVSKLTVDKSRWQQGNVFSCSVMHEALHNHYTQKSLSLSPG light 1: not shown heavy 2: EVQLVQSGAEVKKPGSSVKVSCKASGYTFASYGISWVRQAPGQGLEWMGGITPFFNRVDVAEKFQGRVTITADKSTSTAYIELSSLRSEDTAVYYCARDLRRGGVGDAFDIWGRGTLVTVSSASTKGPSVFPLAPSSKSTSGGTAALGCLVKDYFPEPVTVSWNSGALTSGVHTFPAVLQSSGLYSLSSVVTVPSSSLGTQTYICNVNHKPSNTKVDKRVEPKSCDKTHTCPPCPAPELLGGPDVFLFPPKPKDTLMISRTPEVTCVVVDVSHEDPEVKFNWYVDGVEVHNAKTKPREEQYNSTYRVVSVLTVLHQDWLNGKEYKCKVSNKALPLPEEKTISKAKGQPREPQVYTLPPSREEMTKNQVSLWCLVKGFYPSDIAVEWESNGQPENNYKTTPPVLDSDGSFFLYSKLTVDKSRWQQGNVFSCSVMHEALHNHYTQKSLSLSPG light 2: QSALTQPRSVSGSPGQSVTISCTGTSPDVGSHAYRSWYQQHPGKAPKLMIYEVSYRPSGVSNRFSGSKSGNTASLTISGLQAEDEADYYCSSYPPSSATVFGAGTKLTVLGQPKAAPSVTLFPPSSEELQANKATLVCLISDFYPGAVTVAWKADSSPVKAGVETTTPSKQSNNKYAASSYLSLTPEQWKSHRSYSCQVTHEGSTVEKTVAPTEC	19.6 nM	4 nM	19.6 nM	0.00116 s⁻¹	59200 M⁻¹ s⁻¹	4.29 nM	0.00126 s⁻¹	294000 M⁻¹ s⁻¹	19.7 nM	0.000796 s⁻¹	40500 M⁻¹ s⁻¹	3.7 nM	0.00129 s⁻¹	348000 M⁻¹ s⁻¹	0.258 µg/mL	0.0951 µg/mL	2.81 µg/mL
